Measurements as given in PMC10786891, “Massively parallel profiling of RNA-targeting CRISPR-Cas13d”.
Where a chain is given by its changes, count along the chain named. Names and notes keep the numbering of the source.

T1: EsCas13d, nuclease-dead (Eubacterium siraeum, UniProt B0MS50, R295A;H300A;R849A;H854A)
T1 sequence: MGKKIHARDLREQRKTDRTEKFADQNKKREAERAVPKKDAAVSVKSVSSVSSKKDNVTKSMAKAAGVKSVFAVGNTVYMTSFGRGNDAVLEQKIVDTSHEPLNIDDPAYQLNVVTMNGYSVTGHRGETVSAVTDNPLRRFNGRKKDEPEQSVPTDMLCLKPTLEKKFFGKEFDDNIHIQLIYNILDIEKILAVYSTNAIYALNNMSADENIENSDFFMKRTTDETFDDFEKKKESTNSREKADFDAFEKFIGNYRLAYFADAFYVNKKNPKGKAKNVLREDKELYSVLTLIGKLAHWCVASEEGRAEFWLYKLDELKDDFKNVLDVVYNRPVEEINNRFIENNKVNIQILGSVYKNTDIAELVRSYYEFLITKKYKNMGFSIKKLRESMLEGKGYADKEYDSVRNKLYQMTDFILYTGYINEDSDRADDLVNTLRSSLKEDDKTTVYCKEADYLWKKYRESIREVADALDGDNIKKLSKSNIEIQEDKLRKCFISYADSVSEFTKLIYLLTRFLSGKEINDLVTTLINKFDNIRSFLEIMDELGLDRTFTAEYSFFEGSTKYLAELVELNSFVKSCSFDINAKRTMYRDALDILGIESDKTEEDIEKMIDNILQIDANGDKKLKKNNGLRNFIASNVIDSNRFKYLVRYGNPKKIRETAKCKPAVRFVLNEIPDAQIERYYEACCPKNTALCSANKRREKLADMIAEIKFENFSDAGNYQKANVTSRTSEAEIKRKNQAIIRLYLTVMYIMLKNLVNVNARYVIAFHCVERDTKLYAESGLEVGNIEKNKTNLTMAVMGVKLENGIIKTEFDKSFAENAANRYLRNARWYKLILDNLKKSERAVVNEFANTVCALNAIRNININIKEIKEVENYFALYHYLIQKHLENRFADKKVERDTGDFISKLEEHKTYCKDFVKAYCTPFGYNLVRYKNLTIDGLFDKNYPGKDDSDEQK

B1: target 1 U10G,A16U (mixed)
RNA 1: CACCCGUGCAAAAAUGCAGGGGUCUAAAACUGAGCGGAUAACCUCUCUAUGG
RNA 2: GGGAAUGGAUCCACAUCUACGAAUUCGUACCAUAGUGAGGUGAUCCGCUCACCGAGAUCGGAAGAGCACACGU
B2: target 1 MT 5'PFS GCA 3'PFS CAG (mixed)
RNA 1: B1 RNA 1
RNA 2: B1 RNA 2 with U28C, U36A, G42U, C53A
B3: target 1 MT 5'PFS GUA 3'PFS GAA (mixed)
RNA 1: B1 RNA 1
RNA 2: B1 RNA 2 with U36A, G42U, C52G, C53A, G54A
B4: target 1 MT 5'PFS GUA 3'PFS UCG (mixed)
RNA 1: B1 RNA 1
RNA 2: B1 RNA 2 with U36A, G42U, C52U
B5: target 1 MT 5'PFS GUA 3'PFS UCU (mixed)
RNA 1: B1 RNA 1
RNA 2: B1 RNA 2 with U36A, G42U, C52U, G54U
B6: target 1 MT 5'PFS CAG 3'PFS ACA (mixed)
RNA 1: B1 RNA 1
RNA 2: B1 RNA 2 with G27C, U28A, A29G, U36A, G42U, C52A, G54A
B7: target 1 MT 5'PFS GUC 3'PFS AUU (mixed)
RNA 1: B1 RNA 1
RNA 2: B1 RNA 2 with A29C, U36A, G42U, C52A, C53U, G54U
B8: target 1 MT 5'PFS GUC 3'PFS AUA (mixed)
RNA 1: B1 RNA 1
RNA 2: B1 RNA 2 with A29C, U36A, G42U, C52A, C53U, G54A
B9: target 1 MT 5'PFS CUA 3'PFS AGG (mixed)
RNA 1: B1 RNA 1
RNA 2: B1 RNA 2 with G27C, U36A, G42U, C52A, C53G
B10: target 1 MT 5'PFS CUA 3'PFS AGU (mixed)
RNA 1: B1 RNA 1
RNA 2: B1 RNA 2 with G27C, U36A, G42U, C52A, C53G, G54U
B11: target 1 MT 5'PFS CUA 3'PFS UAC (mixed)
RNA 1: B1 RNA 1
RNA 2: B1 RNA 2 with G27C, U36A, G42U, C52U, C53A, G54C
B12: target 1 MT 5'PFS GUC 3'PFS AUG (mixed)
RNA 1: B1 RNA 1
RNA 2: B1 RNA 2 with A29C, U36A, G42U, C52A, C53U
B13: target 1 MT 5'PFS UAG 3'PFS AUA (mixed)
RNA 1: B1 RNA 1
RNA 2: B1 RNA 2 with G27U, U28A, A29G, U36A, G42U, C52A, C53U, G54A
B14: target 1 MT 5'PFS CAG 3'PFS ACC (mixed)
RNA 1: B1 RNA 1
RNA 2: B1 RNA 2 with G27C, U28A, A29G, U36A, G42U, C52A, G54C
B15: target 1 U8A,A9U (mixed)
RNA 1: B1 RNA 1
RNA 2: B1 RNA 2 with U36A, G42U, A43U, U44A
B16: target 1 MT 5'PFS GUA 3'PFS UCA (mixed)
RNA 1: B1 RNA 1
RNA 2: B1 RNA 2 with U36A, G42U, C52U, G54A
B17: target 1 MT 5'PFS GCA 3'PFS CAA (mixed)
RNA 1: B1 RNA 1
RNA 2: B1 RNA 2 with U28C, U36A, G42U, C53A, G54A
B18: target 1 MT 5'PFS GUA 3'PFS UCC (mixed)
RNA 1: B1 RNA 1
RNA 2: B1 RNA 2 with U36A, G42U, C52U, G54C
B19: target 1 MT 5'PFS CUA 3'PFS UAG (mixed)
RNA 1: B1 RNA 1
RNA 2: B1 RNA 2 with G27C, U36A, G42U, C52U, C53A
B20: target 1 C7A,G12A (mixed)
RNA 1: B1 RNA 1
RNA 2: B1 RNA 2 with U36A, G40A, G42U, C45A
B21: target 1 MT 5'PFS UAG 3'PFS AUG (mixed)
RNA 1: B1 RNA 1
RNA 2: B1 RNA 2 with G27U, U28A, A29G, U36A, G42U, C52A, C53U
B22: target 1 MT 5'PFS AGG 3'PFS ACC (mixed)
RNA 1: B1 RNA 1
RNA 2: B1 RNA 2 with G27A, U28G, A29G, U36A, G42U, C52A, G54C
B23: target 1 MT 5'PFS CUA 3'PFS UAA (mixed)
RNA 1: B1 RNA 1
RNA 2: B1 RNA 2 with G27C, U36A, G42U, C52U, C53A, G54A
B24: target 1 MT 5'PFS AGG 3'PFS ACG (mixed)
RNA 1: B1 RNA 1
RNA 2: B1 RNA 2 with G27A, U28G, A29G, U36A, G42U, C52A
B25: target 1 MT 5'PFS GUG 3'PFS AGA (mixed)
RNA 1: B1 RNA 1
RNA 2: B1 RNA 2 with A29G, U36A, G42U, C52A, C53G, G54A
B26: target 1 MT 5'PFS GUA 3'PFS GAC (mixed)
RNA 1: B1 RNA 1
RNA 2: B1 RNA 2 with U36A, G42U, C52G, C53A, G54C
B27: target 1 MT 5'PFS GCA 3'PFS CAU (mixed)
RNA 1: B1 RNA 1
RNA 2: B1 RNA 2 with U28C, U36A, G42U, C53A, G54U
B28: target 1 MT 5'PFS GUC 3'PFS AUC (mixed)
RNA 1: B1 RNA 1
RNA 2: B1 RNA 2 with A29C, U36A, G42U, C52A, C53U, G54C
B29: target 1 MT 5'PFS ACA 3'PFS AUG (mixed)
RNA 1: B1 RNA 1
RNA 2: B1 RNA 2 with G27A, U28C, U36A, G42U, C52A, C53U
B30: target 1 MT 5'PFS UAG 3'PFS AUU (mixed)
RNA 1: B1 RNA 1
RNA 2: B1 RNA 2 with G27U, U28A, A29G, U36A, G42U, C52A, C53U, G54U
B31: target 1 MT 5'PFS ACA 3'PFS AUA (mixed)
RNA 1: B1 RNA 1
RNA 2: B1 RNA 2 with G27A, U28C, U36A, G42U, C52A, C53U, G54A
B32: target 1 MT 5'PFS ACA 3'PFS AUC (mixed)
RNA 1: B1 RNA 1
RNA 2: B1 RNA 2 with G27A, U28C, U36A, G42U, C52A, C53U, G54C
B33: target 1 MT 5'PFS UUU 3'PFS AGC (mixed)
RNA 1: B1 RNA 1
RNA 2: B1 RNA 2 with G27U, A29U, U36A, G42U, C52A, C53G, G54C
B34: target 1 MT 5'PFS GGC 3'PFS CGA (mixed)
RNA 1: B1 RNA 1
RNA 2: B1 RNA 2 with U28G, A29C, U36A, G42U, C53G, G54A
B35: target 1 MT 5'PFS UAG 3'PFS AUC (mixed)
RNA 1: B1 RNA 1
RNA 2: B1 RNA 2 with G27U, U28A, A29G, U36A, G42U, C52A, C53U, G54C
B36: target 1 MT 5'PFS GUA 3'PFS GAG (mixed)
RNA 1: B1 RNA 1
RNA 2: B1 RNA 2 with U36A, G42U, C52G, C53A
B37: target 1 U3C,C4G (mixed)
RNA 1: B1 RNA 1
RNA 2: B1 RNA 2 with U36A, G42U, C48G, U49C
B38: target 1 MT 5'PFS GUC 3'PFS UUC (mixed)
RNA 1: B1 RNA 1
RNA 2: B1 RNA 2 with A29C, U36A, G42U, C52U, C53U, G54C
B39: target 1 MT 5'PFS GUA 3'PFS GAU (mixed)
RNA 1: B1 RNA 1
RNA 2: B1 RNA 2 with U36A, G42U, C52G, C53A, G54U
B40: target 1 MT 5'PFS CAG 3'PFS ACG (mixed)
RNA 1: B1 RNA 1
RNA 2: B1 RNA 2 with G27C, U28A, A29G, U36A, G42U, C52A
B41: target 1 MT 5'PFS GUC 3'PFS UUG (mixed)
RNA 1: B1 RNA 1
RNA 2: B1 RNA 2 with A29C, U36A, G42U, C52U, C53U

Molecular target: T1, EsCas13d, nuclease-dead
Test: crRNA (strand 1, pre-loaded); Mg2+; 40 mM Tris-HCl pH 7.5, 150 mM NaCl, 6 mM MgCl2, 1 mM DTT, 0.1% Tween-20, 0.2 mg/ml BSA; 25 C; 10 min per concentration, then washed
Conditions: tags: His6-TwinStrep-SUMO cleaved; N-terminal SNAP kept (SNAP-Surface 488); label: 3' end held by stalled T7 RNA polymerase

Binder | Kd [µM]
B1 | 0.058 ± 0.01
B2 | ~0.0365
B3 | 0.0118 ± 0.0013
B4 | 0.00856 ± 0.00055
B5 | 0.0083 ± 0.00095
B6 | 0.031 ± 0.0155
B7 | 0.0161 ± 0.00215
B8 | 0.026 ± 0.007
B9 | 0.041 ± 0.019
B10 | 0.0122 ± 0.00365
B11 | ~0.0039
B12 | 0.0245 ± 0.004
B13 | 0.0313 ± 0.00495
B14 | 0.024 ± 0.0115
B15 | 0.0129 ± 0.0008
B16 | 0.0123 ± 0.00095
B17 | ~0.0325
B18 | 0.00732 ± 0.00061
B19 | 0.0049 ± 0.0009
B20 | 0.0096 ± 0.0008
B21 | 0.0465 ± 0.009

Binder | Kd [µM]
B22 | 0.0465 ± 0.022
B23 | 0.006 ± 0.0013
B24 | 0.041 ± 0.01
B25 | 0.0159 ± 0.001
B26 | 0.0143 ± 0.00305
B27 | 0.035 ± 0.011
B28 | 0.0285 ± 0.011
B29 | 0.0395 ± 0.0145
B30 | 0.0316 ± 0.0047
B31 | 0.0123 ± 0.0039
B32 | 0.056 ± 0.0255
B33 | 0.068 ± 0.0275
B34 | 0.022 ± 0.007
B35 | 0.032 ± 0.009
B36 | 0.0161 ± 0.0023
B37 | 0.0114 ± 0.0006
B38 | 0.0191 ± 0.0045
B39 | 0.0125 ± 0.00135
B40 | 0.0195 ± 0.00515
B41 | 0.0119 ± 0.00175
